The source of these data is patent publication US20190010224A1 (Merck Sharp & Dohme, published 2019).

Experiment [1] addresses T1, recombinant human IL-10 (human, UniProt P22301 19-178).
T1 construct: Immobilized on ELISA microtiter plates; also called interleukin-10
Put plainly: binding ELISA on immobilized recombinant human IL-10; potency relative to reference material; sample stored at 5 C, 3 months. The method, then:
(§1) In the ELISA assay, individual dose response curves were generated by using a serial dilution of anti-IL10 reference material or test samples binding to recombinant human IL-10 immobilized on ELISA microtiter plates. Then, by using a SoftMax Pro GxP four-parameter logistic curve fitting analysis, EC₅₀ values of reference material as a control and test samples were determined and a reference-to-sample EC₅₀ ratio was calculated as relative potency for a test sample. Final results were reported as potency relative to reference material.

For experiment [2], the target named is T1, recombinant human IL-10. The experiment in a line: binding ELISA on immobilized recombinant human IL-10; potency relative to reference material; sample stored at 5 C, 6 months. The method, then:
as §1
(In general: In an ELISA, binding on a coated surface is turned into a signal by an enzyme label.)

The target of experiment [3] is T1, recombinant human IL-10. Put plainly: binding ELISA on immobilized recombinant human IL-10; potency relative to reference material; sample stored at 5 C, 1 month. The method, then:
as §1

For experiment [4], the target named is T1, recombinant human IL-10. Put plainly: binding ELISA on immobilized recombinant human IL-10; potency relative to reference material; sample stored at 5 C, initial time point. How it is done: as §1

T1 sequence (P22301 19-178 limits assumed): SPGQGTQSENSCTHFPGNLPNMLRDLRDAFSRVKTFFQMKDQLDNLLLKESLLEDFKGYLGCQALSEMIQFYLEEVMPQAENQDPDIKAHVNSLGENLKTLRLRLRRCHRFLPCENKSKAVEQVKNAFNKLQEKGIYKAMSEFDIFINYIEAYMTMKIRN

B1: anti-IL-10 hum12G8 (antibody, human IgG1, kappa, V domains shown)
VH: QVQLVESGGGVVQPGRSLRLSCAASGFTFSDYHMAWVRQAPGKGLEWVASITLDATYTYYRDSVRGRFTISRDNSKNTLYLQMNSLRAEDTAVYYCARHRGFSVWLDYWGQGTLVTVSS
VL: DIQMTQSPSSLSASVGDRVTITCKTSQNIFENLAWYQQKPGKAPKLLIYNASPLQAGVPSRFSGSGSGTDFTLTISSLQPEDFATYYCHQYYSGYTFGPGTKLELKR
notes: Humanized antibody expressed in CHO cells; It was tested as 50 mg/mL drug product in 10 mM histidine, 7% sucrose, 0.02% PS-80, pH 5.5; also called humanized 12G8; hu12G8
On to B1, for which the “Potency Binding ELISA/Biological Potency, % (reference-to-sample EC50 ratio)” value in the experiment with recombinant human IL-10 [1] was determined as 99%; with recombinant human IL-10 [2], 105%; with recombinant human IL-10 [3], 115%; with recombinant human IL-10 [4] it was 101%.
